PMC10027671

Assays:
Adnectin1-tFhuA [1] = assay: single-channel electrical recording (nanopore, resistive pulse); single Adnectin1-tFhuA sensor in a planar lipid bilayer, 20 nM EGFR cis, in the presence of 5% (v/v) fetal bovine serum; +20 mV; filtered at 500 Hz
Adnectin1-tFhuA [2] = assay: single-channel electrical recording (nanopore, resistive pulse); single Adnectin1-tFhuA sensor in a planar lipid bilayer, EGFR added to the cis side; +20 mV; 300 mM KCl, 10 mM Tris-HCl, pH 8.0, no TCEP; 24 ± 1 °C; two-exponential capture durations (short- and long-lived)

Question: For “ectodomain of epidermal growth factor receptor (EGFR) (from UniProt P00533 25-645) (domain or fragment)”, which tau off-1 at 20 nM EGFR with 5% FBS (Fig. 5k) (Adnectin1-tFhuA [1]) is on record?
Answer: 0.036 s

Question: And the tau off-2 (mean duration of long-lived blockades) with 5% FBS (Adnectin1-tFhuA [1])?
Answer: 0.93 s

Question: And the tau off-2 at 20 nM EGFR with 5% FBS (Fig. 5k) (Adnectin1-tFhuA [1])?
Answer: 0.81 s

Question: And the tau on (released duration) at 20 nM EGFR with 5% FBS (Fig. 5j) (Adnectin1-tFhuA [1])?
Answer: 0.607 s

Question: What about the tau on-2 with 5% FBS (Adnectin1-tFhuA [1]) of the same substance?
Answer: 1.7 s

Question: What about the tau off-1 at 20 nM EGFR, without FBS (Fig. 5i) (Adnectin1-tFhuA [2]) of the same substance?
Answer: 0.044 s

Question: And the tau off-2 at 20 nM EGFR, without FBS (Fig. 5i) (Adnectin1-tFhuA [2])?
Answer: 0.982 s

Question: What about the tau on (released duration) at 10 nM EGFR (Adnectin1-tFhuA [2]) of the same substance?
Answer: 0.78 s

Question: And the tau on (released duration) at 20 nM EGFR (Adnectin1-tFhuA [2])?
Answer: 0.42 s

Question: What about the tau on (released duration) at 20 nM EGFR, without FBS (Fig. 5h) (Adnectin1-tFhuA [2]) of the same substance?
Answer: 0.4 s

Question: And the tau on (released duration) at 40 nM EGFR (Adnectin1-tFhuA [2])?
Answer: 0.25 s
